Experimental data taken from doi:10.1101/2022.09.07.507024.

Biological target: FMAL-labeled F-actin (rabbit skeletal muscle) (rabbit) (UniProt P68135)
Assay: FRET or BRET

| Substance | change of FRET against WT at 2.5 uM C0-C2 (direction not told) | increase of FRET over WT at 2.5 uM C0-C2 | other results |
| --- | --- | --- | --- |
| TMR-C0-C2^(Cys249, L349R), PKA-phosphorylated (domain or fragment) | 31% |  |  |
| TMR-C0-C2^(Cys249, L349R), unphosphorylated (domain or fragment) | 10% |  |  |
| TMR-C0-C2^(Cys249, L352P), PKA-phosphorylated (domain or fragment) |  | 74 to 160% |  |
| TMR-C0-C2^(P330C, L349R), PKA-phosphorylated (domain or fragment) |  | 166% |  |
| TMR-C0-C2^(P330C, L349R), unphosphorylated (domain or fragment) |  | 89% |  |
| TMR-C0-C2^(P330C, L352P), PKA-phosphorylated (domain or fragment) |  | 74 to 160% |  |
| TMR-C0-C2^(P330C, R282W), PKA-phosphorylated (domain or fragment) |  | 105% |  |
| TMR-C0-C2^(P330C, T59A), unphosphorylated (domain or fragment) |  | 21% |  |
| TMR-C0-C2^(S85C, E334K), PKA-phosphorylated (domain or fragment) |  |  | FRET as percent of WT at 2.5 uM C0-C2 (% of wild type FRET): 45 |
| TMR-C0-C2^(S85C, L349R), PKA-phosphorylated (domain or fragment) | 4% |  |  |
| TMR-C0-C2^(S85C, L349R), unphosphorylated (domain or fragment) | 22% |  |  |
